Measurements: US20200299373A1
“And” between values parts separate entries of the source, which are not always exact repeats. Identical values can stand only once. Each block holds one binder with its values, some of them ahead of it.

Key:
[1] = biological target: T1, FAM19A5 epitope fragment F3 conjugated to BSA (human); assay: ELISA, antigen coated on the plate, antibody in solution, absorbance at 492 nm; details: remark: other sources report otherwise
T1 chain: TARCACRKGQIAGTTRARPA

[2] = biological target: T2, FAM19A5 epitope fragment F4 conjugated to BSA (human); assay: as above; details: remark: other sources report otherwise
T2 chain: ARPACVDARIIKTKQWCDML

[3] = biological target: T3, FAM19A5 epitope fragment F1 conjugated to BSA (human); assay: as above; details: remark: other sources report otherwise
T3 chain: QLAAGTCEIVTLDR

[4] = biological target: T4, FAM19A5 epitope fragment F5 conjugated to BSA (human); assay: as above; details: remark: other sources report otherwise
T4 chain: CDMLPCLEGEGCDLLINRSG

[5] = biological target: T5, FAM19A5 epitope fragment F6 conjugated to BSA (human); assay: as above; details: remark: other sources report otherwise
T5 chain: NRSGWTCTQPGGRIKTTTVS

[6] = biological target: recombinant human FAM19A5 protein (His-tagged) (human) (UniProt Q7Z5A7); assay: ELISA on N'-Term His FAM19A5, fit of the titration; R2 printed 0.8823
[7] = biological target: recombinant human FAM19A5 protein (His-tagged) (human) (UniProt Q7Z5A7); assay: two-site sandwich ELISA; capture antibody P2-A03; S/N = O.D. at 10 ng/mL antigen / O.D. at 0 ng/mL; O.D. in column 0 printed 0.14
[8] = biological target: recombinant human FAM19A5 protein (His-tagged) (human) (UniProt Q7Z5A7); assay: two-site sandwich ELISA; capture antibody P2-F11; S/N = O.D. at 10 ng/mL antigen / O.D. at 0 ng/mL; O.D. in column 0 printed 0.15
[9] = biological target: recombinant human FAM19A5 protein (His-tagged) (human) (UniProt Q7Z5A7); assay: two-site sandwich ELISA; capture antibody 3-2; S/N = O.D. at 10 ng/mL antigen / O.D. at 0 ng/mL; O.D. in column 0 printed 0.13
[10] = biological target: recombinant human FAM19A5 protein (His-tagged) (human) (UniProt Q7Z5A7); assay: two-site sandwich ELISA; capture antibody P2-F11; biotinylated detection antibody 13B4; antigen in ng/mL
[11] = biological target: recombinant human FAM19A5 protein (His-tagged) (human) (UniProt Q7Z5A7); assay: two-site sandwich ELISA; capture antibody 1-65; S/N = O.D. at 10 ng/mL antigen / O.D. at 0 ng/mL; O.D. in column 0 printed 0.12
[12] = biological target: recombinant human FAM19A5 protein (His-tagged) (human) (UniProt Q7Z5A7); assay: ELISA on N'-Term His FAM19A5, fit of the titration (OD 492 nm); R2 printed 0.8823
[13] = biological target: recombinant human FAM19A5 protein (His-tagged) (human) (UniProt Q7Z5A7); assay: two-site sandwich ELISA; capture antibody P2-A03; biotinylated detection antibody 13B4; antigen in ng/mL
[14] = biological target: recombinant human FAM19A5 protein (His-tagged) (human) (UniProt Q7Z5A7); assay: two-site sandwich ELISA; capture antibody 3-2; biotinylated detection antibody 13B4; antigen in ng/mL
[15] = biological target: recombinant human FAM19A5 protein (His-tagged) (human) (UniProt Q7Z5A7); assay: two-site sandwich ELISA; capture antibody 2-13; biotinylated detection antibody 13B4; antigen in ng/mL
[16] = biological target: recombinant human FAM19A5 protein (His-tagged) (human) (UniProt Q7Z5A7); assay: two-site sandwich ELISA; capture antibody 1-65; biotinylated detection antibody 13B4; antigen in ng/mL
[17] = biological target: recombinant human FAM19A5 protein (His-tagged) (human) (UniProt Q7Z5A7); assay: two-site sandwich ELISA; capture antibody 2-13; S/N = O.D. at 10 ng/mL antigen / O.D. at 0 ng/mL; O.D. in column 0 printed 0.21
[18] = biological target: recombinant human FAM19A5 protein (His-tagged) (human) (UniProt Q7Z5A7); assay: ELISA on coated FAM19A5, as in Example 6
[19] = biological target: recombinant human FAM19A5 protein (His-tagged) (human) (UniProt Q7Z5A7); assay: ELISA on N'-Term His FAM19A5, fit of the titration (OD 492 nm); R2 printed 0.8806
[20] = biological target: recombinant human FAM19A5 protein (His-tagged) (human) (UniProt Q7Z5A7); assay: two-site sandwich ELISA; capture antibody 2-13; biotinylated detection antibody 1-65; antigen in ng/mL
[21] = biological target: recombinant human FAM19A5 protein (His-tagged) (human) (UniProt Q7Z5A7); assay: two-site sandwich ELISA; capture antibody 3-2; biotinylated detection antibody 1-65; antigen in ng/mL
[22] = biological target: recombinant human FAM19A5 protein (His-tagged) (human) (UniProt Q7Z5A7); assay: two-site sandwich ELISA; capture antibody 3-2; S/N = O.D. at 10 ng/mL antigen / O.D. at 0 ng/mL; O.D. in column 0 printed 0.28
[23] = biological target: recombinant human FAM19A5 protein (His-tagged) (human) (UniProt Q7Z5A7); assay: ELISA, His-FAM19A5 (positive control) coated on the plate, absorbance at 492 nm
[24] = biological target: recombinant human FAM19A5 protein (His-tagged) (human) (UniProt Q7Z5A7); assay: two-site sandwich ELISA; capture antibody P2-A03; S/N = O.D. at 10 ng/mL antigen / O.D. at 0 ng/mL; O.D. in column 0 printed 0.1
[25] = biological target: recombinant human FAM19A5 protein (His-tagged) (human) (UniProt Q7Z5A7); assay: two-site sandwich ELISA; capture antibody 2-13; S/N = O.D. at 10 ng/mL antigen / O.D. at 0 ng/mL; O.D. in column 0 printed 0.55
[26] = biological target: recombinant human FAM19A5 protein (His-tagged) (human) (UniProt Q7Z5A7); assay: two-site sandwich ELISA; capture antibody P2-A03; biotinylated detection antibody 1-65; antigen in ng/mL
[27] = biological target: recombinant human FAM19A5 protein (His-tagged) (human) (UniProt Q7Z5A7); assay: two-site sandwich ELISA; capture antibody P2-F11; biotinylated detection antibody 1-65; antigen in ng/mL
[28] = biological target: recombinant human FAM19A5 protein (His-tagged) (human) (UniProt Q7Z5A7); assay: two-site sandwich ELISA; capture antibody P2-F11; S/N = O.D. at 10 ng/mL antigen / O.D. at 0 ng/mL; O.D. in column 0 printed 0.19
[29] = biological target: recombinant human FAM19A5 protein (His-tagged) (human) (UniProt Q7Z5A7); assay: two-site sandwich ELISA; capture antibody 13B4; S/N = O.D. at 10 ng/mL antigen / O.D. at 0 ng/mL; O.D. in column 0 printed 0.15
[30] = biological target: recombinant human FAM19A5 protein (His-tagged) (human) (UniProt Q7Z5A7); assay: two-site sandwich ELISA; capture antibody 13B4; biotinylated detection antibody 1-65; antigen in ng/mL
[31] = biological target: recombinant human FAM19A5 protein (His-tagged) (human) (UniProt Q7Z5A7); assay: ELISA on N'-Term His FAM19A5, fit of the titration (OD 492 nm); R2 printed 0.9329
[32] = biological target: recombinant human FAM19A5 protein (His-tagged) (human) (UniProt Q7Z5A7); assay: ELISA on N'-Term His FAM19A5, fit of the titration; R2 printed 0.9329

O.D. [1]: 0.06 and 0.05 | O.D. [2]: 0.05 | O.D. [3]: 0.06 and 0.05 | O.D. [4]: 0.05 | O.D. [5]: 0.05
B1: anti-FAM19A5 antibody 3-2 (antibody, V domains shown)
VH: not shown
VL: ALTQPSSVSANPGETVKITCSGGGSYAGSYYYGWYQQKAPGSAPVTLIYESNKRPSDIPSRFSGSTSGSTATLTITGVQADDEAIYYCGSWDSSNGGIFGAGTTLTVL
modifications: here or on the partner: conjugated to BSA

Kd [6]: 1.06 nM | S/N [7]: 1.1 | S/N [8]: 1.1 | S/N [9]: 2.3 | O.D., antigen 100 [10]: 0.14 | O.D., antigen column 10 [10]: 0.16 | S/N [11]: 1 | Bmax [12]: 2.84 | O.D., antigen 100 [13]: 0.15 | O.D., antigen column 10 [13]: 0.16 | O.D., antigen 100 [14]: 1.7 | O.D., antigen column 10 [14]: 0.3 | O.D., antigen 100 [15]: 1.92 | O.D., antigen column 10 [15]: 0.65 | O.D., antigen 100 [16]: 0.12 | O.D., antigen column 10 [16]: 0.12 | S/N [17]: 3.1
B2: anti-FAM19A5 antibody 13B4 (antibody, V domains shown)
VH: QVQLQESGPGLVKPSGTLSLNCAVSGGSISSSNWWSWVRQPPGKGLEWIGEIYHGGTTNYNPSLKGRVTMSVDKTKNQFSLRLSSVTAVDTAVYYCARWQLVGGLDVWGQGTTVTVSS
VL: SYELTQPLSVSVSPGQTASITCSGDKLGNVYASWYQQKPGQSPTLVIYQDNKRPSGIPERFSGSNSGKTATLTISGTQALDEADYYCQAWDSSTAVFGGGTKLTVLR
modifications: Biotinylated when used as detection antibody in FIG. 6B.

Kd [18]: 0.1 nM | Bmax [19]: 3.26 | O.D., antigen 100 [20]: 1.73 | O.D., antigen column 10 [20]: 1.81 | O.D., antigen 100 [21]: 1.98 | O.D., antigen column 10 [21]: 1.83 | S/N [22]: 6.5 | O.D. [23]: 3.95 | S/N [24]: 1.1 | S/N [25]: 3.3 | O.D., antigen 100 [26]: 0.16 | O.D., antigen column 10 [26]: 0.11 | O.D., antigen 100 [27]: 1.61 | O.D., antigen column 10 [27]: 0.33 | S/N [28]: 1.7 | S/N [29]: 1 | O.D., antigen 100 [30]: 0.19 | O.D., antigen column 10 [30]: 0.15
B3: anti-FAM19A5 antibody 1-65 (antibody, V domains shown)
VH: AVTLDESGGGLQTPGGALSLVCKASGFTFSSYQMGWVRQAPGKGLEWVGVINKSGSDTSYGSAVKGRATISRDNGQSTVRLQLNNLRAEDTGTYFCAKGSASYITAATIDAWGHGTEVIVSS
VL: ALTQPSSVSANPGETVKITCSGGGSSGYGYGWYQQKSPSSAPLTVIYWNDKRPSDIPSRFSGSKSGSTHTLTITGVQAEDEAVYFCGNDDYSSDSGYVGVFGAGTTLTVL

Bmax [31]: 3.04 | Kd [32]: 2.77 nM
B4: 13F7 (antibody, V domains shown)
VH: QVQLQEWGAGLLKPSETLSLTCAINAESFNGYSWTWIRQTPGKGLEWIGEISHFGSANYNPSLKSRATISADKSKNQFSLKLTSVTAVDTAVYYCARALRGTYSRFYYGMDVWGQGTTVTVSS
VL: DIVMTQTPLSLPVAPGEPASISCRSSQSLLHSNGYNYLDWYVQKPGQPPQLLIYLGSNRASGVPDRFSGSGSGTDFTLKISRVEAEDVGVYYCMQARQTPLTFGGGTKVEIKR
